Positions count from the first letter of the chain named. Where no end group is shown, it is not given here. [ ]: non-standard residue; d: D form. AlaP = not defined here
Legend:
Type in all cases: biochemical
[1] = molecular target: T1, Proteinase 3 (Homo sapiens, UniProt P24158); experiment: Protease inhibition assay, second order rate constant kobs/[I] (method of Tian and Tsou)
T1 sequence (P24158 28-248): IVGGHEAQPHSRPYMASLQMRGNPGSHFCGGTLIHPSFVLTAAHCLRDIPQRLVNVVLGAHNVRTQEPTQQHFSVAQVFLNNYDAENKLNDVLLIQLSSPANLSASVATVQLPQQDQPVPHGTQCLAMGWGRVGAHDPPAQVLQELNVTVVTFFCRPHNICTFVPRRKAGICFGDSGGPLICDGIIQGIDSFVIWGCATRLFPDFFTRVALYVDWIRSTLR
Description: The compounds of the invention are advantageously selective inhibitors of PR3. […] As described under the Examples below (see PR3 inhibition assay), and as is generally known, efficacy of particular inhibitors against a target protease, for example, recombinant human PR3, is determined by combining the target with a substrate (for example Suc-AanV-SBzI), both in the absence of the inhibitor and in the present of different concentrations of such inhibitor to be tested. Typically, the efficacy of irreversible inhibitors are measured in terms of the second order rate constant of inhibition value (11) or kobs/l. Preferred inhibitors of the invention have typically a kobs/I of more than 10 M^−1s^−1, preferably more than 100 M^−1s^−1, and more preferably of more than […].
The inactivation of proteases by substrate analog inhibitors in the presence of the substrate by competition for the enzyme-binding site, was measured by the method of Tian and Tsou (17). In this system, product formation in the presence of an irreversible inhibitor approaches an asymptote, as described by
log([P∞]−[P])=log [P∞]−0.43A[Y]t
where [P∞] is the concentration of product formed at time approaching infinity, [P] is the concentration of product at time t, [Y] is the inhibitor concentration, and A is the apparent inhibition rate constant in the presence of the substrate. A is given by
where k+0 is the rate constant for association of the inhibitor with the enzyme, K^−1 is the inverted Michaelis constant, and [S] the substrate concentration. The apparent inhibition rate constant A is the slope of a plot of log([P∞]−[P]) against t, to give the second-order rate constant of inhibition k+0

[2] = molecular target: T2, HNE (Homo sapiens, UniProt P08246); experiment: Residual activity of purified protease with FRET substrate in presence of increasing amounts of compound
T2 sequence (P08246 30-267): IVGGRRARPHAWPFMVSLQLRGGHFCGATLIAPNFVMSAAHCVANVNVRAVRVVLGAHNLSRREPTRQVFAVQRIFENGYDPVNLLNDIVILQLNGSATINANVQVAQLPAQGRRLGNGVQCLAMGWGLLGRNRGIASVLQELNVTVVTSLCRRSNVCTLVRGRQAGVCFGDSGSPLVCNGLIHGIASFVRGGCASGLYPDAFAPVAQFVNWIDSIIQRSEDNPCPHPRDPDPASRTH
Excerpt: (§1) Phosphonate inhibitors and their biotinylated and fluorescent derivatives were synthesized, purified and controlled by mass spectrometry as reported. Their purity was checked by HPLC (data not shown). Purified Ac-Asp-Tyr-Asp-Ala^P(O—C6H4-4-Cl)2 (compound 1) and Ac-Pro-Tyr-Asp-Ala^P(O—C6H4-4-Cl)2 (compound 2) were first assayed for their inhibitory properties by measuring the residual activity of the human neutrophil serine proteases PR3, HNE and CatG in the presence of increasing amounts of each compound. We used for this purpose the FRET substrates that we developed previously for each protease (18). An almost complete inhibition of PR3 (1 nM final) was obtained after a 30 min incubation time with 20 μM of compound 1 (FIG. 1) and 0.3 μM of compound 2 (FIG. 2). Recombinant PR3K99L, […], HNE and CatG were used in the same experimental conditions. […] This emphasizes the importance of the S2 and S4 subsites to discriminate between PR3 and HNE specificities. Significant inhibition of HNE was obtained using about 100 times more Ac-Pro-Tyr-Asp-Ala^P(O—C6H4-4-Cl)2 than required to inhibit PR3. […] We confirmed this observation kinetically by measuring the second order rate constants kobs/l by competition experiments between the PR3 substrate and each inhibitor (17). As expected the second order rate constant kobs/l for compound 2 was about 100 times greater than that for compound 1 (see Table 1).

[3] = molecular target: T3, PR3I217R (Homo sapiens, UniProt P24158, I221R); experiment: Residual activity of recombinant PR3 mutant in presence of increasing amounts of compound
T3 construct: made in house; host or cells: Drosophila S2 cells
T3 sequence (P24158 28-248 I221R limits assumed): T1 sequence (P24158 28-248) with I194R
Description: (§2) Recombinant PR3K99L and […] were produced in Drosophila S2 cells using the calcium phosphate method, and stable cell lines were selected using puromycin. Proteins were purified by affinity chromatography on Chelating Sepharose and analyzed by SDS-PAGE. The total protein concentration was determined with a BCA Protein Assay
as §1

[4] = molecular target: T4, PR3K99L (Homo sapiens, UniProt P24158, K115L); experiment: as above; conditions: Lys99 replaced by Leu in S2 subsite
T4 construct: made in house; host or cells: Drosophila S2 cells
T4 sequence (P24158 28-248 K115L limits assumed): T1 sequence (P24158 28-248) with K88L
Description: as §2, §1

[5] = molecular target: T5, PR3 (Homo sapiens, UniProt P24158); experiment: Inhibition of protease activity in crude lung secretions of patients (IPF, cystic fibrosis); conditions: 30 min incubation, IPF and CF samples
T5 construct: in a lysate of purified human neutrophils; endogenous in cells; host or cells: purified human neutrophils (lysate)
T5 sequence (P24158 28-248): T1 sequence (P24158 28-248)
Description: Crude lung secretions of patients with chronic inflammatory disorders associating significant neutrophil recruitment (IPF, Cystic fibrosis) were used as biological material to assay the efficacy of phosphonate inhibitors. We first measured the rate of cleavage of the PR3 substrate in >3 IPF and >3 CF crude samples before and after incubation with compounds 2 and 4 (×μM final). All crude samples cleaved the PR3 substrate in the absence of inhibitor and the cleavage always occurred at the expected bond, i.e. the cleavage bond of PR3, as checked by HPLC. The PR3 concentration was in the 0.1-1 μM range in lung secretions, based on the rate of substrate hydrolysis. […] Further, the rate of PR3 inactivation in a crude biological sample […] that of purified PR3, which means that there is no adverse effect impairing the PR3 inhibition in lung secretions of patients with inflammatory disorders.

[6] = molecular target: T2, HNE; experiment: as above; conditions: 30 min incubation, IPF and CF samples

Substance: Ac-Pro-Tyr-Asp-Ala^P(O—C6H4-4-Cl)2 (Ac-PYD[AlaP]; not fully specified (C-terminus); printed as Ac-Pro-Tyr-Asp-Ala^P(O—C6H4-4-Cl)2; reading uncertain; also: C-terminal Ala as phosphonate analogue (Ala^P)) [Compound 2]
- Proteinase 3 kobs/[I] [1]: 154 ± 3 M⁻¹ s⁻¹
- kobs/I relative to that of compound 1 ([1]; competition between PR3 substrate and inhibitor): about 100 times
- amount of inhibitor for significant inhibition of HNE relative to that required to inhibit PR3 [2]: about 100 times
- inhibition of HNE ([2]; HNE 1 nM, same experimental conditions as PR3): no significant inhibition
- inhibition of the Ile217 to Arg217 PR3 mutant compared with PR3K99L [3]: more efficient toward this mutant
- sensitivity of PR3K99L to inhibition compared with wt PR3 [4]: far less sensitive to inhibition
- hydrolysis of PR3 substrate in crude lung secretions [5]: total inhibition
- HNE activity in crude lung secretions [6]: remained unchanged

— patent publication US20160257710A1, “SELECTIVE INHIBITORS OF PROTEINASE 3” (INSERM (INSTITUT NATIONAL DE LA SANTÉ ET LA RECHERCHE …, priority 2013, published 2016)
